B1: ICR-114: porcine pancreas lipase, BioCatalytics (protein, UniProt P00591 1-450, looked up)
Pancreatic triacylglycerol …: SEVCFPRLGCFSDDAPWAGIVQRPLKILPWSPKDVDTRFLLYTNQNQNNYQELVADPSTITNSNFRMDRKTRFIIHGFIDKGEEDWLSNICKNLFKVESVNCICVDWKGGSRTGYTQASQNIRIVGAEVAYFVEVLKSSLGYSPSNVHVIGHSLGSHAAGEAGRRTNGTIERITGLDPAEPCFQGTPELVRLDPSDAKFVDVIHTDAAPIIPNLGFGMSQTVGHLDFFPNGGKQMPGCQKNILSQIVDIDGIWEGTRDFVACNHLRSYKYYADSILNPDGFAGFPCDSYNVFTANKCFPCPSEGCPQMGHYADRFPGKTNGVSQVFYLNTGDASNFARWRYKVSVTLSGKKVTGHILVSLFGNEGNSRQYEIYKGTLQPDNTHSDEFDSDVEVGDLQKVKFIWYNNNVINPTLPRVGASKITVERNDGKVYDFCSQETVREEVLLTLNPC
B2: ICR-116: Mucor miehei lipase, BioCatalytics (protein, UniProt P19515 95-363, looked up)
Lipase: SIDGGIRAATSQEINELTYYTTLSANSYCRTVIPGATWDCIHCDATEDLKIIKTWSTLIYDTNAMVARGDSEKTIYIVFRGSSSIRNWIADLTFVPVSYPPVSGTKVHKGFLDSYGEVQNELVATVLDQFKQYPSYKVAVTGHSLGGATALLCALDLYQREEGLSSSNLFLYTQGQPRVGDPAFANYVVSTGIPYRRTVNERDIVPHLPPAAFGFLHAGEEYWITDNSPETVQVCTSDLETSDCSNSIVPFTSVLDHLSYFGINTGLCT
B3: Proteinase K, T. album, recombinantly expressed in P. pastoris: Proteinase K, T. album, recombinantly expressed in P. pastoris, Roche 3115879 (protein, UniProt P06873 106-384, looked up)
Proteinase K: AAQTNAPWGLARISSTSPGTSTYYYDESAGQGSCVYVIDTGIEASHPEFEGRAQMVKTYYYSSRDGNGHGTHCAGTVGSRTYGVAKKTQLFGVKVLDDNGSGQYSTIIAGMDFVASDKNNRNCPKGVVASLSLGGGYSSSVNSAAARLQSSGVMVAVAAGNNNADARNYSPASEPSVCTVGASDRYDRRSSFSNYGSVLDIFGPGTSILSTWIGGSTRSISGTSMATPHVAGLAAYLMTLGKTTAASACRYIADTANKGDLSNIPFGTVNLLAYNNYQA
modifications: recombinant, Pichia pastoris
B4: ICR-107: Pseudomonas cepacia lipase, BioCatalytics (protein, UniProt P22088 45-364, looked up)
Triacylglycerol lipase: AAGYAATRYPIILVHGLSGTDKYAGVLEYWYGIQEDLQQNGATVYVANLSGFQSDDGPNGRGEQLLAYVKTVLAATGATKVNLVGHSQGGLSSRYVAAVAPDLVASVTTIGTPHRGSEFADFVQDVLAYDPTGLSSSVIAAFVNVFGILTSSSHNTNQDALAALQTLTTARAATYNQNYPSAGLGAPGSCQTGAPTETVGGNTHLLYSWAGTAIQPTLSVFGVTGATDTSTLPLVDPANVLDLSTLALFGTGTVMINRGSGQNDGLVSKCSALYGKVLSTSYKWNHLDEINQLLGVRGAYAEDPVAVIRTHANRLKLAGV
B5: ICR-115: Thermomyces languinosus lipase, BioCatalytics (protein, UniProt O59952 23-291, looked up)
Lipase: EVSQDLFNQFNLFAQYSAAAYCGKNNDAPAGTNITCTGNACPEVEKADATFLYSFEDSGVGDVTGFLALDNTNKLIVLSFRGSRSIENWIGNLNFDLKEINDICSGCRGHDGFTSSWRSVADTLRQKVEDAVREHPDYRVVFTGHSLGGALATVAGADLRGNGYDIDVFSYGAPRVGNRAFAEFLTVQTGGTLYRITHTNDIVPRLPPREFGYSHSSPEYWIKSGTLVPVTRNDIVKIEGIDATGGNNQPNIPDIPAHLWYFGLIGTCL

Tests used:
Format in all cases: biochemical
[1] = Lipase-catalyzed perhydrolysis of triacetin at pH 6.5 (Example 1); settings: 250 mM triacetin, 500 mM H2O2, pH 6.5, 1 mg enzyme, 22° C.
Description: Into a 4-mL glass vial with stir bar was added 1 mg enzyme (ICR 101-117, BioCatalytics, Pasadena, Calif.) in 0.050 mL of 50 mM potassium phosphate buffer (pH 6.5), 0.900 mL of 278 mM triacetin in 50 mM potassium phosphate buffer (pH 6.5, 250 mM final triacetin concentration), and 0.052 mL 30% hydrogen peroxide (500 mM final concentration). After stirring for 5 or 30 minutes at 22° C., a 0.250 mL sample was filtered using a 30,000 Nominal Molecular Weight Limit (NMWL) filter (Millipore UltraFree-MC, Millipore Corp., Billerica, Mass.) centrifuged for 2 minute at 12,000 RPM. A portion of the filtered reaction samples was diluted 1:10 with dd water and analyzed for hydrogen peroxide, and the remaining portion of the sample was directly analyzed for peracid using the HPLC assay method (Table 1).

[2] = Lipase-catalyzed perhydrolysis of triacetin at pH 4.0 (Example 2); settings: 250 mM triacetin, 500 mM H2O2, pH 4.0, 1 mg enzyme, 22° C.
Description: Into a 4-mL glass vial with stir bar was added 1 mg enzyme (ICR 101-117, BioCatalytics, Pasadena, Calif.) in 0.050 mL of 50 mM sodium acetate/acetic acid buffer (pH 4.0), 0.900 mL of 278 mM triacetin in 50 mM sodium acetate/acetic acid buffer (pH 4.0, 250 mM final triacetin concentration), and 0.052 mL 30% hydrogen peroxide (500 mM final concentration). […] A portion of the filtered reaction samples was diluted 1:10 with dd water and analyzed for hydrogen peroxide, and the remaining portion of the sample was directly analyzed for peracid using the HPLC assay method (Table 2).

[3] = Lipase-catalyzed perhydrolysis of a mixture of diacetin, triacetin and monoacetin at pH 6.5 (Example 4); settings: diacetin (278 mM), triacetin (144 mM), monoacetin (131 mM); for 250 mM H2O2 peracetic acid (ppm), 5 min / 250 mM H2O2 peracetic acid (ppm), 30 min: pH 6.5, 250 mM H2O2, 1 mg enzyme; for 500 mM H2O2 peracetic acid (ppm), 5 min / 500 mM H2O2 peracetic acid (ppm), 30 min: pH 6.5, 500 mM H2O2, 1 mg enzyme
Description: Into a 4-mL glass vial with stir bar was added 1 mg enzyme (ICR 101-117, BioCatalytics, Pasadena, Calif.) in 0.050 mL of 50 mM potassium phosphate buffer (pH 6.5), 0.900 mL of an aqueous mixture containing diacetin (278 mM), triacetin (144 mM) and monoacetin (131 mM) in 50 mM potassium phosphate buffer (pH 6.5), and either 0.052 mL 30% hydrogen peroxide (500 mM final concentration) or 0.026 mL 30% hydrogen peroxide (250 mM final concentration). […] A portion of the filtered reaction samples was diluted 1:10 with dd water and analyzed for hydrogen peroxide, and the remaining portion of the sample was directly analyzed for peracid using the HPLC assay method (Table 4).

[4] = Protease-catalyzed perhydrolysis of acetamide at pH 6.5 (Example 9); settings: pH 6.5, 500 mM H2O2, 1 mg protease
Description: (§1) Into a 4-mL glass vial with stir bar was added 1 mg protease (Table 6) in 0.050 mL of 50 mM potassium phosphate buffer (pH 6.5), 0.900 mL of an aqueous mixture containing either a) acetamide (278 mM) in 50 mM potassium phosphate buffer (pH 6.5) or b) diacetamide (278 mM) in 50 mM potassium phosphate buffer (pH 6.5), and 0.052 mL 30% hydrogen peroxide (500 mM final concentration). […] A portion of the filtered reaction samples was diluted 1:10 with dd water and analyzed for hydrogen peroxide, and the remaining portion of the sample was directly analyzed for peracid using the HPLC assay method (Table 10).

[5] = Protease-catalyzed perhydrolysis of acetamide at pH 4.0 (Example 6); settings: pH 4.0, 500 mM H2O2, 1 mg protease
Description: as §1, with “sodium acetate/acetic acid” for “potassium phosphate”, “4.0),” for “6.5),”, “4.0)” for “6.5)”, “7).” for “10).”

[6] = Protease-catalyzed perhydrolysis of diacetamide at pH 6.5 (Example 9); settings: pH 6.5, 500 mM H2O2, 1 mg protease
Description: as §1

Row | Molecule | peracetic acid (ppm), 5 min [1] | peracetic acid (ppm), 30 min [1] | peracetic acid (ppm), 5 min [2] | peracetic acid (ppm), 30 min [2] | 250 mM H2O2 peracetic acid (ppm), 5 min [3] | 250 mM H2O2 peracetic acid (ppm), 30 min [3] | 500 mM H2O2 peracetic acid (ppm), 5 min [3] | 500 mM H2O2 peracetic acid (ppm), 30 min [3] | acetamide (250 mM) peracetic acid (ppm), 5 min ([4]; 5 min) | acetamide (250 mM) peracetic acid (ppm), 30 min ([4]; 30 min) | acetamide (250 mM) peracetic acid (ppm), 5 min ([5]; 5 min) | acetamide (250 mM) peracetic acid (ppm), 30 min ([5]; 30 min) | diacetamide (250 mM) peracetic acid (ppm), 5 min ([6]; 5 min) | diacetamide (250 mM) peracetic acid (ppm), 30 min ([6]; 30 min)
1 | B1 | 135 ppm | 0 ppm | 165 ppm | 53 ppm | 0 ppm | 0 ppm | 0 ppm | 0 ppm |  |  |  |  |  | 
2 | B2 | 238 ppm | 117 ppm | 14 ppm | 0 ppm | 0 ppm | 7 ppm | 0 ppm | 0 ppm |  |  |  |  |  | 
3 | B3 |  |  |  |  |  |  |  |  | 150 ppm | 194 ppm | 26 ppm | 43 ppm | 66 ppm | 99 ppm
4 | B4 | 179 ppm | 0 ppm | 32 ppm | 135 ppm | 0 ppm | 102 ppm | 17 ppm | 54 ppm |  |  |  |  |  | 
5 | B5 | 216 ppm | 113 ppm | 206 ppm | 132 ppm | 0 ppm | 8 ppm | 11 ppm | 8 ppm |  |  |  |  |  | 

From patent publication US8063008B2, “Enzymatic production of peracids using perhydrolytic enzymes” (E. I. du Pont de Nemours and Company, priority 2005, dated 2011)
